In this assay the target is native rat α7 nicotinic acetylcholine receptor (hippocampus) (rat (endogenous in hippocampus)) (UniProt Q05941). Put plainly: radioligand binding.

We go through 1 substance from publication PMC2936243 (Journal of neurochemistry, 2010).

By IC50 is commonly meant the concentration needed to halve the response being measured. Read a low IC50 as higher potency. For orientation: Ki means a dissociation constant, usually derived from enzyme kinetics or from competition with a known ligand. Low readings indicate higher affinity, high ones lower affinity.

Substance “Alexa Fluor 546-ArIB[V11L;V16A] (peptide)” gave an IC50 of 7.9 nM and a Ki of 1.8 nM.
